From PMC4973555, “Engineering Saccharomyces cerevisiae with the deletion of endogenous glucosidases for the production of flavonoid glucosides” (Microbial Cell Factories, 2016)

B1: SbGT56 (Scutellaria baicalensis) (protein)
chain: MGQLHIVLVPMIAHGHMIPMLDMAKLFSSRGVKTTIIATPAFAEPIRKARESGHDIGLTTTKFPPKGSSLPDNIRSLDQVTGDLLPHFFRALELLQEPVEEIMEDLKPNCLVSDMFLPWTTDSAAKFGIPRLVFHGTSLFARCFSEQMSIQKPYKNVSSDSEPFVLRGLPHEVSFVRTQIPDYELQEGGDDAFSKMAKQMRDADKKSYGDVINSFEELESEYADYNKNVFGKKAWHIGPLKLFNNRAEQKSSQRGKESAIDDHECLAWLNSKKPNSVVYMCFGSMATFTPAQLHETAVGLESSGQDFIWVVRNGGKNEDWLPQGFEERIKGKGLMIRGWAPQVMILDHPSTGAFVTHCGWNSTLEGICAGLPMVTWPVFAEQFYNEKLVTEVLKTGVSVGNKKWQRVGEGVGSEAVKEAVERVMVGDGAAEMRSRAVYYKEMARKAVEEGGSSYNNLNALIQELSAYVPPMKQGLN
notes: full-length cDNA in pTWIN1B; E. coli BL21 (DE3)
B2: SbGT34 (Scutellaria baicalensis) (protein)
chain: MGQLHIVLVPMIAHGHMIPMLDMAKLFSSRGVKTTIIATPAFAEPIRKARESGHDIGLTTTKFPPKGSSLPDNIWSLDQVTDDLLPHFFRALELLQEPVEEIMEDLKPNCLVSDMFLPWTTDSAAKFGIPRLLFHGTSLFARCFAEQMSLQKPYKNVSSDSEPFVLRGLPHEVSFVRTQIPGYELQEGGDDAFSKMAKQMRDADKKSYGDVINNFEELESEYVDHYKNVFGKKAWHIGPLSLCNNRAEQKSPIDDHECLAWLNSKKPNSVVYMCFGSMATFTPAQLHETAVGLESSGQDFIWVVRNGGENEDWLPQGFEERIKGKGLMIRGWAPQVMILDHPSTGAFVTHCGWNSTLEGICAGLPMVTWPVFAEQFYNEKLVTEVLKTGVSVGNKKWQRVGEGVGSEAVKEAVERVMVGDGAAEMRSRAIYYKEMARKAVEEGGSSYNNLNALIEELSAYVPPMKQGLN
notes: as for B1
B3: SbGT30 (Scutellaria baicalensis) (protein)
chain: MGQLHIVLVPMIAHGHMIPMLDMAKLFSSRGVRTTIIATPAFAEPIRKARESGHDIGLTTTKFPPKGSSLPDNILSLDQVTHDLLPHFFRALELLQEPVEEIMEDLKPNCLVSDMFLPWTTDSAAKFGIPRLLFHGTSLFARCFAEQMSLQKPYKNVSSDSEPFVLRGLPHEVSFVRTQIPGYELQEGGDDAFSKMAKQMRDADKKSYGDVINSFEELESEYVDHYKNVFGKKAWHIGPLSLCNNRAEQKSPIDDHECLAWLNSKKPNSVVYMCFGSMATFSPAQLHETAVGLESSGQDFIWVVRNGGENEDWLPQGFEERIKGKGLMIRGWAPQVVILDHPSTGAFVTHCGWNSTLEGICAGLPMVTWPVFAEQFYNEKLVTEVLKTGVSVGNKKWQRVGEWVGSEAVKEAVEWVMVGDGAAEMRSRANYYKEMARKAVEDGGSSYNNLNALIQELSAYVPPMKQGLN
notes: as for B1

Substrate: O=c1cc(-c2ccc(O)cc2)oc2cc(O)c(O)c(O)c12
Experiment: HPLC glucosyltransferase assay, Lineweaver-Burk plot
Format: biochemical, Scutellaria baicalensis
Conditions: 2 mM UDP-glucose (saturating), 50 mM Tris-HCl pH 7.5, 30 °C

Protein	Km
B1	222 µM
B2	121 µM
B3	188 µM
